In PMC13623948:

What was measured:
[1] = biological target: human UBA6 (full-length, amino acid residues 1-1052) (human) (UniProt A0AVT1)
[2] = biological target: human UBA1 (human) (UniProt P22314); test: BLI; His-tagged E1 ligands on Anti-Penta-His (His1K) biosensors; analyte BIRC6^UBC or BIRC6^(UBCΔinsertion loop) at 40-3240 nM; 50 mM HEPES, pH 7.4, 150 mM NaCl, 0.05% Tween-20, 10 mM imidazole; 25 °C; steady-state 1:1 fit
[3] = biological target: oxyester-linked UBA6-Ub conjugate (UBA6 C625S charged with ubiquitin) (human) (UniProt A0AVT1); test: as above

Chain of human UBA6 (full-length, amino acid residues 1-1052) (human) (A0AVT1 whole entry, the tested form may be a part): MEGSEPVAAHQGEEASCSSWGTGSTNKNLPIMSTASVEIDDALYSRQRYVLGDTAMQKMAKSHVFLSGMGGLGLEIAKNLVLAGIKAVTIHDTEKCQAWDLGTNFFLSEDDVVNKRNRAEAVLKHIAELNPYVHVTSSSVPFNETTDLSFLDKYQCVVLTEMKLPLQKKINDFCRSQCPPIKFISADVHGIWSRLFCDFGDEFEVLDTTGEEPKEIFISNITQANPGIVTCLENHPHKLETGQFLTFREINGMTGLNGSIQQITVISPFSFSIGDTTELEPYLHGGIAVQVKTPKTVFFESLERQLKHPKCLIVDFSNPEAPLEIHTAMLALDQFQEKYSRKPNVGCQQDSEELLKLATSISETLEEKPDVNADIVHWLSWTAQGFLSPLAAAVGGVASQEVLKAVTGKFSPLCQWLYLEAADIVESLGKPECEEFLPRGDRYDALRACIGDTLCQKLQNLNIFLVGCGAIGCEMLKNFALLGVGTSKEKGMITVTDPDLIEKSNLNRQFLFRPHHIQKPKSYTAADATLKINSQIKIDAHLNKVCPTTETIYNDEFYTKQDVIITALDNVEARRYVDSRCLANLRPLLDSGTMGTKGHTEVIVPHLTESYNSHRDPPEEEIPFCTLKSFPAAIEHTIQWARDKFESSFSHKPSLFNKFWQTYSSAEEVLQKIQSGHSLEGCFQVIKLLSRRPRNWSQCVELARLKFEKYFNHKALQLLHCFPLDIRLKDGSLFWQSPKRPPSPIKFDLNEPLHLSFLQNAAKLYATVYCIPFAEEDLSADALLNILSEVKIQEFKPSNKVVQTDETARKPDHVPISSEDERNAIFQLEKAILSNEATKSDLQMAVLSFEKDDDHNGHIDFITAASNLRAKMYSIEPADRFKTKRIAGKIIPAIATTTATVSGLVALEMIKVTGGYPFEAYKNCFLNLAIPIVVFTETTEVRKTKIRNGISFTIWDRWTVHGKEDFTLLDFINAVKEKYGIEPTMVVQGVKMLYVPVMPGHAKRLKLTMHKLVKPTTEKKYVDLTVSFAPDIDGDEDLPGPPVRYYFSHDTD
Chain of UBC domain of BIRC6 (residues 4520-4857) (Q9NR09 4520-4857): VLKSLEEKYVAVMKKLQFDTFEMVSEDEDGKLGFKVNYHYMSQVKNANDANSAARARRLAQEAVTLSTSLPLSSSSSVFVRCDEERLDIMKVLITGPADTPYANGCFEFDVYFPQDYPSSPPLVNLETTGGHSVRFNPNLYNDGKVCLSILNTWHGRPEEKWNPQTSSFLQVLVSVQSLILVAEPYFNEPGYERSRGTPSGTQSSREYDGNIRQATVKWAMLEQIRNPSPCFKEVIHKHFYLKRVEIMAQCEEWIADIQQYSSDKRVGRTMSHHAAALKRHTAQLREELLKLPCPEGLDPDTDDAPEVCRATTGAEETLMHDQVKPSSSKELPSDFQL

Substance	reduction of Ub charging of BIRC6^UBC by UBA6 relative to WT (E1–E2 transthioesterification assay, 2 min) [1]	also measured
BIRC6^UBC Y4711G (from UniProt Q9NR09 4520-4857) (domain or fragment)		reduction of BIRC6^UBC~Ub formation by UBA6 relative to WT (E1–E2 transthioesterification assay, 2 min) [1]: 60%
BIRC6^UBC with the insertion loop deleted (from UniProt Q9NR09 4520-4857) (domain or fragment)		Kd [2]: 1470 nM
BIRC6^UBC β4 loop mutant (Q4634A) (from UniProt Q9NR09 4520-4857) (domain or fragment)	50%	
UBC domain of BIRC6 (residues 4520-4857) (from UniProt Q9NR09 4520-4857) (domain or fragment)		Kd [3]: 2410 nM

Now from value to substance, other results behind:

reduction of Ub charging of BIRC6^UBC by UBA6 relative to WT (E1–E2 transthioesterification assay, 2 min) [1]	Substance	also measured
50%	BIRC6^UBC C-terminal extension mutant (R4745A-R4799A-T4789A) (from UniProt Q9NR09 4520-4857) (domain or fragment)	
25%	BIRC6^UBC N-helix mutant (R4576A-Q4580A-V4583G) (from UniProt Q9NR09 4520-4857) (domain or fragment)	
25%	BIRC6^UBC N-terminal extension mutant (A4569R) (from UniProt Q9NR09 4520-4857)	
